Columns and labels:
[1] = biological target: T1, CADM1-His (Acro Biosystems) (human, UniProt Q9BY67 45-374); assay: ELISA on coated protein
T1 construct: Bought; also called CADM1/IGSF4A; not shown: His tag of the bought protein
T1 sequence: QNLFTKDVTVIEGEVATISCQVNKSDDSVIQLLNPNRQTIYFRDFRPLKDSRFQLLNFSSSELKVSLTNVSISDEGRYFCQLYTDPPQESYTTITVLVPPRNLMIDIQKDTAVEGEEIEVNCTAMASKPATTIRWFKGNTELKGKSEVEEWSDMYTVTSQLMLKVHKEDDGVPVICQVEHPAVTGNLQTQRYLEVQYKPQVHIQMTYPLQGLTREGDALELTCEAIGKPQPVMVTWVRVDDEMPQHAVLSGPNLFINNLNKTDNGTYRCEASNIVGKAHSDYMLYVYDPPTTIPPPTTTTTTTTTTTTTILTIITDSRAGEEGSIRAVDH

[2] = biological target: T2, PTPRG-Fc (ECD of human PTPRG, aa 20-736, fused to human Fc gamma 1) (human, UniProt P23470 20-736); assay: ELISA on coated protein
T2 construct: Made in-house in Expi293 cells; Used in ELISA and SPR; also called recombinant PTPRG-Fc; PTRPG; not shown: human IgG1 Fc (Fc gamma 1) after the hinge
T2 sequence: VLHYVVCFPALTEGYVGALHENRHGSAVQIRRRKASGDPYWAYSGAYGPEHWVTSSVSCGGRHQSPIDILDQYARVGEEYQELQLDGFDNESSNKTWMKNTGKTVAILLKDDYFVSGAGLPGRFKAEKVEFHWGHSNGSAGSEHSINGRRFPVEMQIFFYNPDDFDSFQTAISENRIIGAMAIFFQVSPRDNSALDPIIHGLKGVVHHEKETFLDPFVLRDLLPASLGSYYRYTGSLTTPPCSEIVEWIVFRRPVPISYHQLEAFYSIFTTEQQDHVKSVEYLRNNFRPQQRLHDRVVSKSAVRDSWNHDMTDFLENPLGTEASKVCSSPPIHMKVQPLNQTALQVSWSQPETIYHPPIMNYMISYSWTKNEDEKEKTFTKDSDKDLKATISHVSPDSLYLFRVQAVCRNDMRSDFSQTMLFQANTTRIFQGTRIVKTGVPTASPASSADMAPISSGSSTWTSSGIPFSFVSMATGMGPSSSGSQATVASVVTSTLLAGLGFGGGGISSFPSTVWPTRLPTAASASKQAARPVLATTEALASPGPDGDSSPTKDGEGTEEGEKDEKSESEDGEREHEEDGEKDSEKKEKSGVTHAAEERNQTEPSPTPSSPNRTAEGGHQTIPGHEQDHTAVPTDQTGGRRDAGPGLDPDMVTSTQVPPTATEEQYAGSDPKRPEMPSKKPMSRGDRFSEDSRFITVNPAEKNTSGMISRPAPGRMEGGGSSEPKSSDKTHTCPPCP

SLAMF7 = biological target: T3, SLAMF7; assay: ELISA on coated SLAMF7-StrepTag
T3 construct: coated protein in the ELISA; also called SLAMF7-StrepTag
T3 chain: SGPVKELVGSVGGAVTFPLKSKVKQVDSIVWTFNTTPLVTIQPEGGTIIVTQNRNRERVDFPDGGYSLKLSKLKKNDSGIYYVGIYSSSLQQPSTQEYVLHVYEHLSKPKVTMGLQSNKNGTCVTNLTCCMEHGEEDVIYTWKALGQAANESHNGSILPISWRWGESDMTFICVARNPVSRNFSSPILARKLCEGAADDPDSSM
Method: Recombinant purified ECDs (50-150 ng) of each putative target protein were coated, incubated with 150 ng of the indicated primary antibody, and binding was detected using a peroxidase-conjugated anti-human Fab secondary antibody. Heatmap represents averages of technical triplicates. (8B) Target validation via siRNA knockdown. H929 cells were transfected with siRNA pools targeting the putative antibody targets ICAM1, CADM1, and PTPRG. Cells were then subjected to cognate IgG binding analysis via flow cytometry. (NT, non-targeting siRNA).
ELISA ELISA was conducted as described previously. Briefly, 50-150 ng of antigen was coated overnight in half-area 96-well plates at 4° C., blocked with 3% BSA at 37° C. for 1 h, and 150 ng of chimeric rabbit/human IgG1 was added, incubating for 2 h at 37° C. […] After incubating at 37° C. for 15 min-1 h (depending on intensity of controls), data were acquired using a SpectraMax M5 plate reader (Molecular Devices).

B1: TH9-0022 (antibody, human IgG1, kappa, L234A L235A, V domains shown)
VH: QSLEESGGRLVTPGTPLTLTCTVSGFSLSSYAMNWVRQAPGKGLEWIGIINSYGSTYYASWAKGRFTISKTSTTVDLKITSPTTEDTATYFCARVTYDSYGYGYAPYGMDLWGPGTLVTVSS
VL: LVMTQTPSSTSNAVGGTVTIKCQASQSIGNVLAWYQQKPGQPPKLLIYAASTLASGVPSRVGGSRSGTEYTLTISGVQREDAATYYCLGSDSDSDIAFGGGTELEILR
notes: also called TH9-022; negative control IgG1
[1]
  binding result: no binding (tested: 150 ng IgG1 per well)
[2]
  binding result: no binding (tested: 150 ng IgG1 per well)

B2: HW-97 chimeric rabbit-human IgG1 LA/LA/PG (antibody, V domains shown)
VH: QKQLVESGGRLVTPGTPLTLTCTVTGIDLSSHGMSWVRQAPGKGLEWIGVIYPSGSTWYASWARGRFTISKTSTTVDLKMTSLTTEDTATHFCARGDVGGADNNIWGPGTLVTVSS
VL: SFVLTQPASVQVDLGQTVSLTCTAETLSRSYASWYQQKPGQAPVLLIYRDTSRPSGVPDRFSGSSSGNTATLTISGAQAGDEADYYCATSDGSGSSYQYVFGGGTQLTVTG
notes: Fc-silenced (L234A/L235A/P329G) IgG1, lambda; Alexa Fluor 647-labeled in single-step flow cytometry; Prototype of cluster C-97
[2]
  binding result: no binding (tested: 150 ng IgG1 per well)
SLAMF7
  binding result: no binding (tested: 150 ng IgG1 per well)

B3: HW-113 chimeric rabbit-human IgG1 LA/LA/PG (antibody, V domains shown)
VH: QKQLVESGGGLVQPGGSLTLTCTVSGFSLNKYYMGWFRQAPGKGLEWIGVISRSGDTYYSSWAKGRFTISKASTTVDLRITSPTTEDTATYFCARDASSPGFHGDRLDLWGQGTLVTVSS
VL: SFVLTQPASVQVNLGQTVSLTCTADTLSRSYASWYQQKPGQAPVLLIYRDTSRPSGVPDRFSGSSSGNTATLTISGAQAGDEADYYCATSDGIGSNYLWVFGGGTQLTVTG
notes: Fc-silenced (L234A/L235A/P329G) IgG1, lambda; Alexa Fluor 647-labeled in single-step flow cytometry
[1]
  binding result: no binding (tested: 150 ng IgG1 per well)
[2]
  binding result: no binding (tested: 150 ng IgG1 per well)
SLAMF7
  binding result: no binding (tested: 150 ng IgG1 per well)

B4: HW-101 chimeric rabbit-human IgG1 LA/LA/PG (antibody, V domains shown)
VH: QEQLVESGGRLVTPGTPLTLTCKASGFSLGKYDMSWVRQAPGKGLEWIGTIYAGSGSTWYASWAKGRFTISKTSTTVDLKMTSLTTEDTATYFCARDFLGVNSIWGPGTLVTISS
VL: SFVLTQPASVQVNLGQTVSLTCTADTLSRSYASWYQQKPDQAPVLLIHRDTSRPSGVPDRFSGSNSGNTATLTISGAQAGDEADYYCATSDGSGSNFHFVFGGGTQLTVTG
notes: Fc-silenced (L234A/L235A/P329G) IgG1, lambda; Alexa Fluor 647-labeled in single-step flow cytometry; Cluster C-97
[2]
  binding result: no binding (tested: 150 ng IgG1 per well)
SLAMF7
  binding result: no binding (tested: 150 ng IgG1 per well)
